Earlier results, collected in PMC13598549.

Target: TEAD (Homo sapiens) (UniProt P28347)
Sequence of UniProt P28347 (P28347 whole entry): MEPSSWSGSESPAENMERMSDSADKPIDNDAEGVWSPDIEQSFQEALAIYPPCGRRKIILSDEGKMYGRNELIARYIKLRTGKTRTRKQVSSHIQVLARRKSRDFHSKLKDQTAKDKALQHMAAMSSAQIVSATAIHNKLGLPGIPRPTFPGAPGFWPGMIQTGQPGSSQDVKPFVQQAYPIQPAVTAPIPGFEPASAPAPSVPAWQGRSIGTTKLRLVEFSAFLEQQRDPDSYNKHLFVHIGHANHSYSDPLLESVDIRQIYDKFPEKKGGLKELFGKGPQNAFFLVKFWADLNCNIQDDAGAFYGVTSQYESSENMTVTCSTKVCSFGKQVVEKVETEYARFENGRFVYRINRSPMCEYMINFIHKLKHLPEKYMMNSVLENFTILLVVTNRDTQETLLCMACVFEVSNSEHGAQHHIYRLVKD

YAP (from UniProt P46937)
Kd: 40 nM
